From article PMC11440250 (iScience, 2024)

Molecular target: the molecule itself
Assay: cross-linking

B1: Flag-PKM2 K207R (enzyme)
chain: not shown
binding result: binds
